Measurements taken from patent publication US20060110777A1 (Genentech, published 2006).
Several values for one entry are separate records, joined by “and”; a condition that tells them apart may be missing. Identical values can stand only once. Positions of bridges follow the written chain, without caps; N, C: chain ends. No end group written: not given here.

Biological target: T1, BAFF (UniProt Q9Y275 134-285, limits assumed)
T1 construct: Coated on ELISA plates at 2 ug/ml; The construct is not described; also called BLyS; TALL-1
Experiment: competitive displacement ELISA, BAFF coated, biotinylated miniBR3 as tracer
Experimental: FIGS. 16A-16B depict binding of BR3 variants to BAFF. (A) Competitive displacement of biotinylated miniBR3 measured by ELISA (see methods). Data are shown for BR3 extracellular domain (filled triangles), miniBR3 (open squares), and bhpBR3 (filled circles). IC₅₀ values from the fitted curves are 70 nM, 65 nM, and 15 μM, respectively. (B) HeLa cells expressing a chimeric receptor composed of the extracellular ligand-binding domain of BR3 fused to the death domain of DR4 were seeded 16 hr before treatment. BAFF (2 nM) was added to cells alone or after being preincubated with miniBR3 (3 μM), bhpBR3 (100 μM) or a control hairpin peptide with an unrelated turn sequence in the same bhp scaffold (bhpC, 100 μM) for 30 min at room temperature. Apoptosis was assessed 24 hr later. […]
Nunc Maxisorp 96-well plates were coated overnight at 4° C. with 100 μl of a 2 μg/ml solution of BAFF in carbonate buffer, pH 9.6. […] The reaction was quenched with 100 μl/well 1M H₃PO₄ and the plate read at 490 nm. IC₅₀ values were determined by a four-parameter fit of the competitive displacement ELISA signal. The concentrations of initial stock solutions of bhpBR3 were determined spectrophotometrically as described (Gill and von Hippel, (1989) Anal. Biochem. 182:319-326), while those of miniBR3 and BR3 extracellular domain were determined by quantitative amino acid analysis.

IC50 | Binder
65 nM and ~70 nM | TPCVPAECFDLLVRHCVACGLLRTPR-NH2 (disulfide 3-16, 8-19, Synthetic peptide with the 1:3, 2:4 disulfide-bonding pattern; also called 26-residue miniBR3 peptide; the larger core domain) [miniBR3]
15000 nM | CHWDLLVRHWVC-NH2 (disulfide 1-12 (inferred), BR3 residues 26-31 (DLLVRH) embedded in the disulfide-bonded beta-hairpin (bhp) scaffold; also called the 12-residue peptide; turn peptide bhpBR3) [bhpBR3]
